According to US20160075790A1 (Bristol-Myers Squibb, published 2016):
Where “and” joins values, the source holds several entries; their conditions need not be identical. Identical values can stand only once.

T1: human CD40L, membrane-bound on cells (human, UniProt P29965 1-261)
T1 sequence: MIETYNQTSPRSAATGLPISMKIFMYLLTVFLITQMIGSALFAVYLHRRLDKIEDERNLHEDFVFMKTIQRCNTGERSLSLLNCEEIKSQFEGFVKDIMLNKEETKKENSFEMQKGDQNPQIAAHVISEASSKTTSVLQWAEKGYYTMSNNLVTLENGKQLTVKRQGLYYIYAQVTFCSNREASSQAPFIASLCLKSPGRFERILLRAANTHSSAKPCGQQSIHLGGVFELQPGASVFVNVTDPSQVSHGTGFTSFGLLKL

T2: human isoleucine zipper-CD40L (IZ-hCD40L) (human, UniProt P29965 113-261)
T2 sequence: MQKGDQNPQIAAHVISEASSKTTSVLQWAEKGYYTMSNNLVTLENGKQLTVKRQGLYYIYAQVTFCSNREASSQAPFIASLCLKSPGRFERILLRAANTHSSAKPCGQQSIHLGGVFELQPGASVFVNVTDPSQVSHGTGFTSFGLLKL


Tests used:
[1] = target: T1, human CD40L, membrane-bound on cells; experiment: cell-based or functional assay
[2] = target: T2, human isoleucine zipper-CD40L …; experiment: cell-based or functional assay

CHO-hCD40L-driven DC Activation IL-12 EC50 [1] [nM]	hIZCD40L-driven Human B Cell Proliferation EC50 [2]	CHO-hCD40L-driven Human B Cell Proliferation EC50 [1]	T-B cell MLR EC50 [1] [nM]	Binder
241	117 nM			BMS2h-572-632 (other) VH: EVQLLESGGGLVQPGGSLRLSCAASGFTFKWQLMGWVRQAPGKGLEWVSGIEGPGDVTYYADSVKGRFTISRDNSKNTLYLQMNSLRAEDTAVYYCVKVGKDSKSDYRGQGTLVTVSS
	> 7000 nM			BMS2h-572 (other) VH: EVQLLESGGGLVQPGGSLRLSCAASGFTFNWQLMGWVRQAPGKGLEWVSGIEGPGDVTYYADSVKGRFTISRDNSKNTLYLQMNSLRAEDTAVYYCAKVGKESNFDYRGQGTLVTVSS
	140 nM	> 7000 nM		BMS2h-572-11 (other) VH: EVQLLESGGGLVQPGGSLRLSCAASGFTFNWQLMGWVRQAPGKGLEWVSGIEGPGDVTYYADSVKGRFTISRDNSKNTLYLQMNSLRAEDTAVYYCVKVGKESNSDYRGQGTQVTVSS
77	31 nM			BMS2h-572-634 (other) VH: EVQLLESGGGLVQPGGSLRLSCAASGFTFNWELMGWARQAPGKGLEWVSGIEGPGDVTYYADSVKGRFTISRDNSKNTLYLQMNSLRAEDTAVYYCVKVGKDSRSDYRGQGTLVTVSS
882	134 nM	> 7000 nM		BMS2h-572-14 (other) VH: EVQLLESGGGLVQPGGSLRLSCAASGFTFNWQLMGWVRQAPGKGLEWVSGIEGPGDVTYYADSVKGRFTISRDNTKNTLYLQMNSLRAEDTAVYYCVKVGKESNSDYRGQGTLVTVSS
52	29 nM			BMS2h-572-635 (other) VH: EVQLLESGGGLVQPGGSLRLSCAASGFTFNWELMGWARQAPGKGLEWVSGIEGPGDVTYYADSVKGRFTISRDNSKNTLYLQMNSLRAEDTAVYYCVKVGKDSKSDYRGQGTLVTVSS
> 2000	324 nM and 243 nM			BMS2h-572-9 (other) VH: EVQLLESGGGLVQPGGSLRLSCAASGFTFNWQLMGWVRQAPGKGLEWVSGIEGPGDVTYYADSVKGRFTISRDNSKNTLYLQMNSLRAEDTAVYYCAKVGKESNSDYRGQGTLVTVSS
876	168 nM	> 7000 nM		BMS2h-572-15 (other) VH: EVRLLESGGGLVQPGGSLRLSCAASGFNFNWQLMGWIRQAPGKGLEWVSGIEGPGDVTYYADSVKGRFTISRDNSKNTLYLQMNSLRAEDTAVYYCAKVGKESNSDYRGQGTLVTVSS
	208 nM	> 7000 nM	> 7000	BMS2h-572-6 (other) VH: EVQLLESGGGLVQPGGSLRLSCAASGFTFNWQLMGWVRQAPGKGLEWVSGIEGPGDVTYYADSVKGRFTISRDNSKNTLYLQMNSLRAEDTAVYYCVKVGKESNSDYRGQGTLVTVSS
	6100 nM			BMS2h-494 (other) VL: DIQMTQSPSSLSASVGDRVTITCRASQSIDEDLEWYQQKPGKAPRLLIYSSSWLQSGVPSRFSGSGSGTDFTLTISSLQPEDFATYYCQQYFQYPPTFGQGTKVEIKR
	4800 nM			BMS2h-494-2 (other) VL: DIQMTQSPSSLSASVGDRVTITCRASQSIEEDLEWYQQKPGKAPRLLIYSSSWLQSGVPSRFSGSGSGTDFTLTISSLQPEDFATYYCQQYFQYPPTFGHGTKVEIKR
	> 7000 nM			BMS2h-494-3 (other) VL: DIQMTQSPSSLSASVGDRVTITCRASQSIDEDLEWYQQKPGKAPRLLIYSSSWLQSGVPSRFSGSGSGTDFTLTISSLQPEDFATYFCQQYFQYPPTFGQGTKVEIKR
	2300 nM			BMS2h-492-5 (other) VL: DIQMNQSPSSLSASVGDRVSITCRASQAIEHNLEWYQQKPGKAPKLLIYDASMLQSGVPSRFSGSGSGTDFTLTISSLQPEDFATYYCQQYDAYPPTFGQGTKVEIKR
	6300 nM			BMS2h-492-6 (other) VL: DIQMTQSPSSLSASVGDRVTITCRASQAIESNLEWYQQKPGKAPKLLIYDASMLQSGVPSRFSGSGSGTDFTLTISSLQPEDFATYYCQQYDVYPPTFGQGTKVEIKR
	1900 nM			BMS2h-492-7 (other) VL: DIQMTQSPSSLSASVGDRVTITCRASQAIEHNLEWYQQKPGKAPKLLIYDASMLQSGVPSRFSGSGSGTDFTLTISSLQPEDFATYYCQQYDAYPPTFGQGTKVEIKR
196	82 nM	> 7000 nM		BMS2h-719-2 (other) VH: EVQLLESGGGLVQPGGSLRLSCAASGFTFKRYEMMWVRQAPGKGLEWVSSISSDGSFTYYADSVKGRFTISRDNSKNTLYLQMNSLRAEDTAVYYCAEPFTEFDYWGHGTLVTVSS
812	164 nM and 247 nM			BMS2h-719-226 (other) VH: EVQLLESGGGLVQPGGSLRLSCAASGFTFNKYEMMWARQAPGKGLEWVSSISSDGSFTYYADSVKGRFTISRDNSRNTLYLQMNSLRAEDTAVYYCAEPFTEFDYWGHGTLVTVSS
266	358 nM			BMS2h-719-12 (other) VH: EVQLLESGGGLVQPGGSLRLSCAASGFTFKRYEMMWVRQAPGKGLEWVSSISSDGSFTYYADSVKGRFTVSRDNSKNTLYLQMNSLRAEDTAVYYCADPFTEFDYWGQGTLVTVSS
176	253 nM and 198 nM			BMS2h-719-225 (other) VH: EVQLLESGGGLVQPGGSLRLSCAASGFTFNTYEMQWVRQAPGKGLEWVSSISSDGSFTYYADSVKGRFTISRDNSKNTLYLQMNSLRAEDTAVYYCAEPFTEFDYWGHGTLVTVSS
219	50 nM			BMS2h-719-13 (other) VH: EVQLLESGGGLVQPGGSLRLSCAASGFTFKRYEMMWVRQAPGKGLEWVSSISSDGSFTYYADSVKGRFTISRDNTKNTLYLQMNSLRAEDTAVYYCADPFTELDYWGHGTLVTVSS
113	132 nM	236 nM and 268 nM		BMS2h-719-17 (other) VH: EVQLLESGGGLVQPGGSLRLSCAASGFTFKRYEMSWVRQAPGKGLEWVSSISSDGSFTYYADSVKGRFTISRDNSKNTLYLQMNSLRAEDTAVYYCADPFTEIDYWGQGTQVTVSS
79	29 nM			BMS2h-719-202 (other) VH: EVQLLESGGGLVQPGGSLRLSCAASGFTFKKYEMMWVRQAPGKGLEWVSSISSDGSFTYYADSVKGRFTISRDNSKNTLYLQMNSLRAEDTAVYYCAEPFTEFDYWGHGTLVTVSS
112	23 nM	530 nM	234	BMS2h-116-1312 (other) VL: DIQMTQSPSSLSASVGDRVTITCRASQPIGPDLLWYQQKPGKAPKLLIYQTSILRSGVPSRFSGSGSETDFTLTISNLQPEDLATYYCQQYWAFPVTFGKGTKVVIKR
664	41 nM		1690	BMS2h-116-1314 (other) VL: DIQMTQSPSSLSASVGDRVTITCRASQPIGPDLLWYRQKPGKAPKLLIYQTSILRSGVPSRFSGSGSETDFTLTISNLQPEDFATYYCQQYWAFPVTFGQGTKVVIKR
			258	BMS2h-116-1313 (other) VL: DIQMTQSPSSLSASVGDRVTITCRASQPIGPDLLWYQQKPGKAPKLLIYQTSILRSGVPSRFSGSGSETDFTLTISNLQPEDFATYYCQQYWAFPVTFGRGTKVVIKR
